Changes are numbered by the printed parent chain. Blank lines part the entries; values can stand above or below the binder they belong to.
Assays:
α4β1 integrin on cells = biological target: T1, α4β1 integrin on cells (human, UniProt P13612 34-1032); assay: Jurkat cell adhesion to VCAM-Ig, confirming the absence of binding to α4β1 cells in Example 3
T1 construct: whole, on cells; also called α4β1 on Jurkat cells; stably transfected α4β1 cells
Protocol: (§1) The plate was washed twice with PBS (200 μl/well), blocked with 1% BSA in PBS (200 μl/well) for 1 h at room temperature, and washed thrice with 200 μl/well of assay buffer (TBS, 2 mM Glucose, 0.1% BSA, 1 mM CaCl₂) and 1 mM MgCl₂, pH 7.4). Jurkat cells were removed from cell suspension and centrifuged at 1500 rpm for 5 mins. The pellet was resuspended in RPMI 1640, 1% BSA buffer and incubated with 2 μM fluorescent dye (BCECF, Molecular Probes, Eugene, Oreg.) in a 37° C. incubator for 30 min. The labeled cells were washed twice by centrifugation at 1100 rpm for 5 min and resuspended in assay buffer to 0.8×10⁶ cells/ml. To individual wells of the washed plate were added 50 μl of purified antibody and 50 μl of Jurkat cells labeled with BCECF, and the plate was incubated at room temperature in dark for 1 h. The plate was washed 3-4 times with assay buffer (200 μl/well), and the fluorescence due to adhered cells on the plate was recorded at 485 nm (Excitation) and 538 nm (Emission) wavelength. Percent binding was determined by comparing the fluorescence prior to the final wash step (i.e. total cells added) to that after washing (i.e. bound cells).
This includes examples for a pan-αv commercial antibody (L230), a pan-β1 commercial antibody (mAb13), a published α4-specific antibody (natalizumab), and the c8 small molecule compound previously published as αvβ1 specific (Reed N I et al, Sci Transl Med, 7(288): 288ra79 (2015)).

[1] = biological target: T2, human αvβ1 integrin on cells (human, UniProt P06756 31-1048; P05556 21-798); assay: inhibition of adhesion of BCECF-labelled αvβ1-transfected cells to plate-coated LAP
T2 construct: also called stably transfected human αvβ1 cells; αvβ1 on MRC9 human lung fibroblasts
T2 sequence (P06756 31-1048 limits assumed, chain 1 of 2): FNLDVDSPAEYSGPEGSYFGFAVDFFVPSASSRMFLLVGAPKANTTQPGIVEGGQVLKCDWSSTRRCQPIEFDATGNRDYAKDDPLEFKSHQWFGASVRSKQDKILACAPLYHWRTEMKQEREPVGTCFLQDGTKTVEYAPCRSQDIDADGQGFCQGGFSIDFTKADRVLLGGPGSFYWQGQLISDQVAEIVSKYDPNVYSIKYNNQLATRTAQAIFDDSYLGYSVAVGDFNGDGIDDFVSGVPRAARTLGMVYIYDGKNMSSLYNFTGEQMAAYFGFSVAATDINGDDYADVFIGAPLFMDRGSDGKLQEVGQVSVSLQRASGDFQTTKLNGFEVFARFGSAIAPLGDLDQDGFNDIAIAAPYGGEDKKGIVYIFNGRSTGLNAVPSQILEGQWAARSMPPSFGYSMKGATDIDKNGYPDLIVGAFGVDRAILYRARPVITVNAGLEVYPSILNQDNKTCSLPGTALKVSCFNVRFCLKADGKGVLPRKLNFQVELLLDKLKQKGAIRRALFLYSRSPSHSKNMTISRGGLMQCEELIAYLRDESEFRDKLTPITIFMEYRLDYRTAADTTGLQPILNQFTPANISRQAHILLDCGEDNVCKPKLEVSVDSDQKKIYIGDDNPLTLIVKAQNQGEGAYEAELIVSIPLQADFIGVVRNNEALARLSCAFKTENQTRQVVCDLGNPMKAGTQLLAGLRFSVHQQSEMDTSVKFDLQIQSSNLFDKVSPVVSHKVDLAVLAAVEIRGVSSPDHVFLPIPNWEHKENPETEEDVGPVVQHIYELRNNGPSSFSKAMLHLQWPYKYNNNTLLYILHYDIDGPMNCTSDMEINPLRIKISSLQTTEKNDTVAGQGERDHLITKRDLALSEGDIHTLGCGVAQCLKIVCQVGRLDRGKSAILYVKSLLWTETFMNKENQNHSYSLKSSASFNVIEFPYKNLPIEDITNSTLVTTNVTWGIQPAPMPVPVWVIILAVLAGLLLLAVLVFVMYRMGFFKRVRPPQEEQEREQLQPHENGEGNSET
T2 sequence (P05556 21-798 limits assumed, chain 2 of 2): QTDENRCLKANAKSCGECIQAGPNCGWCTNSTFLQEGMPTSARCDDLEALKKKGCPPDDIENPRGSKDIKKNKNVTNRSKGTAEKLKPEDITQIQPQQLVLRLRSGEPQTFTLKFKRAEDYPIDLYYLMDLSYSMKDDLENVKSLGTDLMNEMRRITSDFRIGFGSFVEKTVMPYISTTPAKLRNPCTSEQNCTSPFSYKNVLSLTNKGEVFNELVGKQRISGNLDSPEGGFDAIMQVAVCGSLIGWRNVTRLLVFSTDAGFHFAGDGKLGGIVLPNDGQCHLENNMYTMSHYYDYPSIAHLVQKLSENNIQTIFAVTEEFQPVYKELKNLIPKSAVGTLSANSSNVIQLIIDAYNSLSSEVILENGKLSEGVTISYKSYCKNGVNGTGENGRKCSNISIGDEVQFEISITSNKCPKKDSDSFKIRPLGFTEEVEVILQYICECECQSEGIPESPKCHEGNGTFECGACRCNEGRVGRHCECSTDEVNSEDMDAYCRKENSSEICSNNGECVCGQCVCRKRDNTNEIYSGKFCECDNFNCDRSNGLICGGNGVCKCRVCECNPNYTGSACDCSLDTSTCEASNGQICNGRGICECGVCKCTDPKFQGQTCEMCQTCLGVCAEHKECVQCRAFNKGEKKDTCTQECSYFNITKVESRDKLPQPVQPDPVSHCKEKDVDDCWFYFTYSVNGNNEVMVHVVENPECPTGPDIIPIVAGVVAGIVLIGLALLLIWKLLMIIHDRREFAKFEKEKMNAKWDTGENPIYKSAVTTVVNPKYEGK
Protocol: as §1, with “7.4). Stably transfected human αvβ1” for “7.4). Jurkat”, “at 1100” for “at 1500”, “of human αvβ1” for “of Jurkat”

[2] = biological target: T2, human αvβ1 integrin on cells; assay: flow cytometry on stably transfected cells, antibody titration (bivalent EC50)
Protocol: (§2) Cells were washed in the appropriate assay buffer three times by pelleting at 1500 RPM for 3 minutes and then pouring out supernatant. Assay buffer for this experiment was TBS containing 1 mg/mL BSA and supplemented with either 1 mM Ca+1 mM Mg or with 1 mM Mn. Cells were then resuspended in assay buffer at a concentration of 1.0-1.5×10⁶ cells/mL and transferred to wells of a 96-well assay plate (Corning 3799) in 50 μL aliquots. Plates were then centrifuged at 2000 RPM for 3 minutes to pellet cells and supernatant was flicked out. Cells were resuspended in 100 μL of antibody sample and incubated on ice for 45 to 60 minutes.
(§3) Plates were washed three times in 150 μL assay buffer by pelleting at 2000 RPM for 3 minutes and then flicking out the supernatant. Cells were then resuspended in 50 μL of phycoerythrin-conjugated goat anti-human Fab secondary reagent and incubated on ice in the dark for 30 minutes. Plates were washed three times in 150 μL assay buffer by pelleting at 2000 RPM for 3 minutes and then flicking out the supernatant. Cells were then resuspended in 200 μL of assay buffer+1% polyformaldehyde (PFA) for 30 minutes on ice to fix the cells. Cells were pelleted to remove the PFA and then resuspended in 150 μL assay buffer.

[3] = biological target: T3, αvβ3 integrin on stably transfected cells (human, UniProt P05106 27-788); assay: as above
T3 construct: whole, on cells
Protocol: as §2, §3

[4] = biological target: T4, mouse αvβ1 integrin on BLO-11 mouse skeletal muscle fibroblasts (mouse, UniProt P43406 31-1044; P09055 21-798); assay: flow cytometry on BLO-11 mouse skeletal muscle fibroblasts
T4 construct: whole, on cells; the cells carry other integrins as well; also called BLO-11 (murine fibroblast cells)
T4 sequence (P43406 31-1044, chain 1 of 2): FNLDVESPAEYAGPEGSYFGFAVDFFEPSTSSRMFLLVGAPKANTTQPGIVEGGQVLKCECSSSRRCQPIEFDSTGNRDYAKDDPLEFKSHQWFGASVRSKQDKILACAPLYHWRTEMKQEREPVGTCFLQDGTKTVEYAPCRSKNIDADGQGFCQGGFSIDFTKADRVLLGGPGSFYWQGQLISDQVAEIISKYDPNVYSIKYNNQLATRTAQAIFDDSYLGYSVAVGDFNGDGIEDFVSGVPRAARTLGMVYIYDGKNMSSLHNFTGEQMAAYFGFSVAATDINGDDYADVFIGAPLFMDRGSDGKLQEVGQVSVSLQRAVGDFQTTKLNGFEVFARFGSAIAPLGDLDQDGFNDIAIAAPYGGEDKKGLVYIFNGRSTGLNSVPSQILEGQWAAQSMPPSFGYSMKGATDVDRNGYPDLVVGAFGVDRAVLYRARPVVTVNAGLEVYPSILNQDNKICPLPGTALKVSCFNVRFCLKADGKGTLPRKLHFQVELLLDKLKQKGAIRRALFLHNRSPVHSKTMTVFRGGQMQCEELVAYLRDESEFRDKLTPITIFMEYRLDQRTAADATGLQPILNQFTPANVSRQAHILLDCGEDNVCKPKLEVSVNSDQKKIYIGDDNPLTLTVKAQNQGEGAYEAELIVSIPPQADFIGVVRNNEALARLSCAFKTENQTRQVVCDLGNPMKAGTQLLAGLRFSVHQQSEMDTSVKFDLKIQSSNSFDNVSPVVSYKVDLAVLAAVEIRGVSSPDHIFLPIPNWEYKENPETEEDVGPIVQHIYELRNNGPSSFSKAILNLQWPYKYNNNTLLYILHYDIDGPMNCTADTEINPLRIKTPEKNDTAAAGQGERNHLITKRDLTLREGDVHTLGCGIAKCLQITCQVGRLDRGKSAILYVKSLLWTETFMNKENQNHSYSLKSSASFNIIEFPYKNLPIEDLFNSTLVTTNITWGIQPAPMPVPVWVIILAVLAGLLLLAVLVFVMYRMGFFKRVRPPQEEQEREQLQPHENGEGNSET
T4 sequence (P09055 21-798, chain 2 of 2): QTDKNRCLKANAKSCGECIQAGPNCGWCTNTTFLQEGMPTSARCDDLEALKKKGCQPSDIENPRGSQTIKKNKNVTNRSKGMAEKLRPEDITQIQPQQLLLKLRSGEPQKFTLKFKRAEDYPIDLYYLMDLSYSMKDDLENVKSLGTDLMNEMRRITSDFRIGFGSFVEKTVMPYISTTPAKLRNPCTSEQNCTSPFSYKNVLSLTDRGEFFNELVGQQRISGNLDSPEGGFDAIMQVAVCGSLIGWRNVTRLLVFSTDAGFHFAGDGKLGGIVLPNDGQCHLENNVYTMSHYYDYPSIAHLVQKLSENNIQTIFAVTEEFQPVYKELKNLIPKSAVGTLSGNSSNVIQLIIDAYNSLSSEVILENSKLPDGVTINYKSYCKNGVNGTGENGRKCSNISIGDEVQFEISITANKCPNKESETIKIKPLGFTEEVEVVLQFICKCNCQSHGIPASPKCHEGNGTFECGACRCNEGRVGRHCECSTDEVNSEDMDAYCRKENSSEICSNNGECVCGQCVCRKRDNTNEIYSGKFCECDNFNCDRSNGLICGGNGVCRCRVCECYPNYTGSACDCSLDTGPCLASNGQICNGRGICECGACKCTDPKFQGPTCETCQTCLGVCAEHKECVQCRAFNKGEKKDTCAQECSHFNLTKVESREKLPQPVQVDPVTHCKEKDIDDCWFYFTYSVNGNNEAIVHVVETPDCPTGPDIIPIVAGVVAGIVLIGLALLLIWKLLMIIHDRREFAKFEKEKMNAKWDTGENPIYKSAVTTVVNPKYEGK
Protocol: MRC9 cells were obtained from Sigma (#85020202) and maintained in EMEM (ATCC, #30-2003) supplemented with 10% Fetal Bovine Serum (FBS from Gibco, #16000-077). BLO-11 cells were obtained from ATCC (#CCL-198) and maintained in DMEM (ATCC, #30-2002) supplemented with 10% FBS. Cells were harvested by incubating with cell dissociation buffer (Gibco, #13150-016) at 37° C. for 10 min and then washed with FACS buffer containing CaCl₂) and MgCl₂ (FACS⁺⁺ buffer; PBS+1% BSA+1 mM CaCl₂)+1 mM MgCl₂). All staining and wash steps were performed at 4° C. in FACS⁺⁺ buffer. In a 96 well U bottom plate, 0.75×10⁶ cells per well were plated and then spun down to remove supernatant. Cells were then resuspended in serially diluted primary antibody and incubated for 30 min. After incubation, cells were washed twice and then incubated with α-human IgG Alexa Fluor 647 (Invitrogen, #A21445) secondary antibody for another 30 min. Cells were then washed twice and fixed with 1% PFA diluted in PBS for 30 min, followed by a final wash. Fluorescence activated cell sorting (FACS) analysis was performed using a five-laser BD LSR-II flow cytometer (BD Biosciences, San Jose, Calif., USA), and data were analyzed using FlowJo software v9 (Treestar, Ashland, Oreg., USA) and transferred into analysis and graphic software including GraphPad Prism 7 (La Jolla, Calif., USA).

[5] = biological target: T5, αvβ8 integrin on stably transfected cells (human, UniProt P26012 43-769); assay: flow cytometry on stably transfected cells; weak binding observed but incomplete fit to calculate EC50
T5 construct: whole, on cells
T5 sequence (chain, as listed by the source, chain 1 of 2): as the sequence (P06756 31-1048 limits assumed, chain 1 of 2) above
T5 sequence (P26012 43-769, chain 2 of 2): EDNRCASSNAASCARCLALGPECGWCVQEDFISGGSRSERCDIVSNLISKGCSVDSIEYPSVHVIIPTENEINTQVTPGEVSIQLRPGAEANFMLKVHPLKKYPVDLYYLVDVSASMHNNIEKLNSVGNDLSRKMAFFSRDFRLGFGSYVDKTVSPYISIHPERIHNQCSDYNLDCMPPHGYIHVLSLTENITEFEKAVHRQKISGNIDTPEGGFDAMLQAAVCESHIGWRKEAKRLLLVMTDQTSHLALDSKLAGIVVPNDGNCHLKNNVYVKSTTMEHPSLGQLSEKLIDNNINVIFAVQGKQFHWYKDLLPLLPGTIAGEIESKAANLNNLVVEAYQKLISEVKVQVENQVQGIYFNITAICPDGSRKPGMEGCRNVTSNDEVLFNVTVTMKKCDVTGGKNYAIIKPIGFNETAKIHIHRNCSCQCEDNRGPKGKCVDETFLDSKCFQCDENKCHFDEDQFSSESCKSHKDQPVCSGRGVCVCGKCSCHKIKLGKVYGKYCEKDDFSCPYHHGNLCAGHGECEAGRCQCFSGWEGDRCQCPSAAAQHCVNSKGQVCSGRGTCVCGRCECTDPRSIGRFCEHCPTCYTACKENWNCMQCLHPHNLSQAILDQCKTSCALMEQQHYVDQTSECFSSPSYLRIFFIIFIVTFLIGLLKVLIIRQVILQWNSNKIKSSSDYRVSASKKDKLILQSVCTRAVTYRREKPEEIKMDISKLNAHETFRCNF
Protocol: as §2, §3

[6] = biological target: T5, αvβ8 integrin on stably transfected …; assay: flow cytometry on stably transfected cells, antibody titration (bivalent EC50)
Protocol: as §2, §3

[7] = biological target: T6, αvβ5 integrin on stably transfected cells (human, UniProt P18084 24-799); assay: as above
T6 construct: whole, on cells
Protocol: as §2, §3

[8] = biological target: αvβ6 integrin on stably transfected cells (human, UniProt P06756 31-1048; P18564 22-788); assay: as above
Protocol: as §2, §3

B1: Exemplary Antibody 17 (antibody, V domains shown)
VH: EVQLVQSGAEVKKPGESLKISCKGSGYSFTSYWIGWVRQMPGKGLEWMGIIYPGDSDTRYSPSFQGQVTISADKSISTAYLQWSSLKASDTAMYYCARGPRSRGDGPSNYYYMDVWGQGTLVTVSS
VL: DIQMTQSPSTLSASVGDRVTITCRASQSISSWLAWYQQKPGKAPKLLIYKASSLESGVPSRFSGSGSGTEFTLTISSLQPDDFATYYCQQYRPLPPTFGGGTKVEIK
notes: expressed in yeast (Adimab platform) and purified on protein A; also called Ex. Ab 17
- binding result (α4β1 integrin on cells): no binding
- IC50 [1]: < 1 nM
- EC50 [2]: 1.4 nM
- EC50 [3]: 3.3 nM
- binding result [4]: binds

B3: Exemplary Antibody 20 (antibody, V domains shown)
VH: QVQLVESGGGLVKPGGSLRLSCAASGFTFSDYYMSWIRQAPGKGLEWVSYISSSGSTIYYADSVKGRFTISRDNAKNSLYLQMNSLRAEDTAVYYCARGGPSRGDALAEYFQHWGQGTTVTVSS
VL: EIVLTQSPATLSLSPGERATLSCRASQSVSRYLAWYQQKPGQAPRLLIYDASNRATGIPARFSGSGSGTDFTLTISSLEPEDFAVYYCQQLSLHPPYTFGGGTKVEIK
notes: expressed in yeast (Adimab platform) and purified on protein A; also called Ex. Ab 20
- binding result [5]: binds
- IC50 [1]: 1 nM
- EC50 [2]: 0.4 nM

B4: Exemplary Antibody 13 (antibody, V domains shown)
VH: B3 VH
VL: EIVMTQSPATLSVSPGERATLSCRASQSVSSNLAWYQQKPGQAPRLLIYGASTRATGIPARFSGSGSGTEFTLTISSLQSEDFAVYYCQQLTNHPPIAFGGGTKVEIK
notes: expressed in yeast (Adimab platform) and purified on protein A; also called Ex. Ab 13
- IC50 [1]: 1.3 nM
- EC50 [2]: 0.6 nM

B5: Exemplary Antibody 7 (antibody, V domains shown)
VH: B3 VH
VL: B4 VL with T92V, H94Y, A98T
notes: expressed in yeast (Adimab platform) and purified on protein A; also called Ex. Ab 7
- IC50 [1]: 4.3 nM
- EC50 [2]: 1.2 nM

B8: Exemplary Antibody 5 (antibody, V domains shown)
VH: EVQLVESGGGVVQPGRSLRLSCAASGFTFKYYGMHWVRQAPGKGLEWVASIWYDGSNKKYADSVKGRFTISRDNSKNTLYLQMNSLRAEDTAVYYCARGGPTRGDGTRVYYYGMDVWGQGTTVTVSS
VL: EIVMTQSPATLSVSPGERATLSCRASQSVSSNLAWYQQKPGQAPRLLIYSASTRATGIPARFSGSGSGTEFTLTISSLQSEDFAVYYCQQYYHHPFTFGGGTKVEIK
notes: expressed in yeast (Adimab platform) and purified on protein A; also called Ex. Ab 5
- binding result (α4β1 integrin on cells): no binding

B9: Exemplary Antibody 18 (antibody, V domains shown)
VH: QVQLVQSGAEVKKPGASVKVSCKASGYTFRSFYMHWVRQAPGQGLEWMGVINPSLGSTGYAQKFQGRVTMTRDTSTSTVYMELSSLRSEDTAVYYCARETNYYRGGPAFDIWGQGTMVTVSS
VL: not shown
notes: expressed in yeast (Adimab platform) and purified on protein A; also called Ex. Ab 18
- EC50 [7]: 11 nM
- EC50 [8]: 16 nM
- EC50 [6]: 10 nM
- EC50 [2]: 2 nM
- EC50 [3]: 13 nM

More lines, in order of falling EC50 [2], values ahead:

- binding result (α4β1 integrin on cells): no binding
- IC50 [1]: 2.8 nM
- EC50 [2]: 4.9 nM
- binding result [4]: binds
B10: Exemplary Antibody 4 (antibody, V domains shown)
VH: QVQLVESGGGLVQPGGSLRLSCAASGFTFTSYYMHWVRQAPGQGLEWMGIINPSGGSTSYAQKFQGRVTMTRDTSTSTVYMELSSLRSEDTAVYYCARQQRHRRDYDYYYGMDVWGQGTTVTVSS
VL: EIVLTQSPGTLSLSPGERATLSCRASQSVSSDYLAWYQQKPGQAPRLLIYGASRRATGIPDRFSGSGSGTDFTLTISRLEPEDFAVYYCQQAYSLPPTFGGGTKVEIK
notes: expressed in yeast (Adimab platform) and purified on protein A; also called Ex. Ab 4

- binding result (α4β1 integrin on cells): no binding
- IC50 [1]: 1.4 nM
- EC50 [6]: 2.8 nM
- EC50 [2]: 2.8 nM
- binding result [4]: binds
B7: Exemplary Antibody 19 (antibody, V domains shown)
VH: B8 VH with E1Q, K30S, Y31S, S50V, W52S, K59Y
VL: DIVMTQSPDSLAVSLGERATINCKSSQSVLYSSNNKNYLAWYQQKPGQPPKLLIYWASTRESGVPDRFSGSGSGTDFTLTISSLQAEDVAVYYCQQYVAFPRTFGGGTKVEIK
notes: expressed in yeast (Adimab platform) and purified on protein A; also called Ex. Ab 19

- IC50 [1]: 9 nM
- EC50 [2]: 0.8 nM
B2: Exemplary Antibody 6 (antibody, V domains shown)
VH: B3 VH with P101R, S102N, A106S, L107S, A108L, E109S, Y110G, F111I, Q112D, H113V
VL: DIQMTQSPSSLSASVGDRVTITCRASQSINSYLNWYQQKPGKAPKLLIYAASSLQSGVPSRFSGSGSGTDFTLTISSLQPEDFATYYCQQQYSDITFGGGTKVEIK
notes: expressed in yeast (Adimab platform) and purified on protein A; also called Ex. Ab 6

- IC50 [1]: 2.2 nM
- EC50 [2]: 0.8 nM
B6: Exemplary Antibody 14 (antibody, V domains shown)
VH: QVQLVESGGGLVKPGGSLRLSCAASGFTFSDYYMSWIRQAPGKGLEWVSYISSSGSTIYYADSVKGRFTISRDNAKNSLYLQMNSLRAEDTAVYYCARERGNRGDTPRYYYMDVWGKGTTVTVSS
VL: DIQMTQSPSSLSASVGDRVTITCRASQSISRYLNWYQQKPGKAPKLLIYAASSLQSGVPSRFSGSGSGTDFTLTISSLQPEDFATYYCQQSLVTPFTFGGGTKVEIK
notes: expressed in yeast (Adimab platform) and purified on protein A; also called Ex. Ab 14
